Data from PMC12406269, “Identification and characterization of nanobodies specific for the human ubiquitin–like ISG15 protein” (The Journal of Biological Chemistry, 2025).

Molecular target: T1, human ISG15 (1-157)-SBP-His (human, UniProt P05161 1-157)
T1 construct: human ISG15, residues 1-157, cloned into pET30b; also called hISG15-SBP-His; human ISG15-SBP; source: E. coli BL21 (DE3), purified (Ni-NTA, SEC); not shown: His, C-terminal, kept
Assay: SEC; VHH and ISG15 mixed at the indicated molar ratios (1:2, 1:1 or 1:1:1) at 20 μM in 500 μl TBS, 20 min at room temperature; Superdex 75 10/300, fractions on SDS-PAGE
Conditions: both partners purified

T1 sequence (P05161 1-157): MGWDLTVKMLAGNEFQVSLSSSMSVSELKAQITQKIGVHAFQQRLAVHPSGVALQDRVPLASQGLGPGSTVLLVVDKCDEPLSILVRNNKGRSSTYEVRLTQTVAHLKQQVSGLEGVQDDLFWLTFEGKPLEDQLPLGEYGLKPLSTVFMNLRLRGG

B1: VHH_(ISG15-A)-HA-His (VHH)
VHH: QLQLVETGGGLVQAGGSLRLSCAASGRTFAGLSVKWFRQPPGAEREWVAHITSTGSSTHYADSVKGRFTISRDYDRNMVYLQMSSLKPEDTAVYYCHASTLWPEKHQDYWGQGIQVTVSS
notes: VHH domain; also called VHH-A; source: E. coli WK6, periplasm (osmotic shock), purified (Ni-NTA, SEC); not shown: LPETGG sortase motif, C-terminal, kept; HA, C-terminal, kept; His6, C-terminal, kept
- binding result: binds
